One block for each binder: values may come before it.
Biological target: SNARE complex including SNAP-25, syntaxin and VAMP2 (endogenous, in PC12 cells) (rat (PC12 cells, derived from rats), UniProt P60881 1-206; P32851 1-288; P63045 2-116)
Experiment: cell-based or functional assay

SNARE complex including SNAP-25, syntaxin and VAMP2 (endogenous, in PC12 cells), sequence (P60881 whole entry, chain 1 of 3): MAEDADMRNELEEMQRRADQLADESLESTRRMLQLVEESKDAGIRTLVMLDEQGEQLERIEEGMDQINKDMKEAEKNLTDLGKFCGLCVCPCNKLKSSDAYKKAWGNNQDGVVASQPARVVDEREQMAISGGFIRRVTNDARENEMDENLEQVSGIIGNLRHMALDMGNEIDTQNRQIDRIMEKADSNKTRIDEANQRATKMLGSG
SNARE complex including SNAP-25, syntaxin and VAMP2 (endogenous, in PC12 cells), sequence (P32851 whole entry, chain 2 of 3): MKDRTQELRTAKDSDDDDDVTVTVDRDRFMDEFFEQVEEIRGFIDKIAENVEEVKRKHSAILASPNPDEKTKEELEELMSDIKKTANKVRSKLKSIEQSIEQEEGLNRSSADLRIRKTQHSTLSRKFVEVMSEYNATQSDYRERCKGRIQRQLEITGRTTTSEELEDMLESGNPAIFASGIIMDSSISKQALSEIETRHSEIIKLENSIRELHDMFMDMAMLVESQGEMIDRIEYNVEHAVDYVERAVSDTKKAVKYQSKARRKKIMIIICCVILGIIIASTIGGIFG
SNARE complex including SNAP-25, syntaxin and VAMP2 (endogenous, in PC12 cells), sequence (P63045 2-116, chain 3 of 3): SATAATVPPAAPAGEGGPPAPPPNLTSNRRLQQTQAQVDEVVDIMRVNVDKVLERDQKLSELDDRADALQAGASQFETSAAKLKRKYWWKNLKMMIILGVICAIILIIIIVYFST

neurotransmitter (norepinephrine) secretion rate in PC12 cells compared to an untreated group, peptide at 20 µM: 75%
B1: P4 peptide, h-VAMP2 (30-46 aa) (peptide)
peptide: RRLQQTQAQVDEVVDIM

neurotransmitter (norepinephrine) secretion rate in PC12 cells compared to an untreated group, peptide at 20 µM: 56%
B2: C2-P7 fusion peptide (IMT-P8 cell membrane-penetrating peptide fused to the N-terminus of P7, h-VAMP2 30-43 aa) (peptide)
peptide: RRWRRWNRFNRRRCRRRLQQTQAQVDEVV

Source: US20250325468A1 (MEDYTOX, published 2025)
